Blank lines part the entries; values can stand above or below the binder they belong to.
Tests used:
[1] = molecular target: CD56 on the surface of human neuroblastoma cells (human) (UniProt P13591); experiment: cell-based or functional assay
[2] = molecular target: human CD56 whole ectodomain (residues 20-720) (human) (UniProt P13591); experiment: SPR (BIACORE X100), CD56 ectodomain immobilized, Fab in flow, 1:1 model
[3] = molecular target: human CD56 whole ectodomain (residues 20-720) (human) (UniProt P13591); experiment: BIACORE, Fab on immobilised CD56 ectodomain
[4] = molecular target: CD56 on the surface of human neuroblastoma cells (human) (UniProt P13591)

percent reduction in CD56 cell surface expression, Kelly cells, 50 nM m906 overnight [1]: 93%
percent reduction in CD56 cell surface expression, SKNAS cells, 50 nM m906 overnight [1]: 21%
percent reduction in CD56 cell surface expression, other neuroblastoma cell lines, 50 nM m906 overnight [1]: > 60%
B1: m906 IgG1 (antibody, V domains shown)
VH: EVQLVQSGAEVKKPGSSVKVSCKASGGTFTGYYMHWVRQAPGQGLEWMGWINPNSGGTNYAQKFQGRVTMTRDTSISTAYMELSRLRSDDTAVYYCARDLSSGYSGYFDYWGQGTLVTVSS
VL: DVVMTQSPLSLPVTPGEPASISCRSSQSLLHSNGYNFLDWYLQKPGQSPQLLIYLGSNRASGVPDRFSGSGSGTDFTLKISRVEADDVGVYYCMQSLQTPWTFGHGTKVEIKR

Kd [2]: 4.5 nM
Kd [3]: 4.49 nM
B2: m906 Fab (Fab, V domains shown)
VH: EVQLVQSGAEVKKPGSSVKVSCKASGGTFTGYYMHWVRQAPGQGLEWMGWINPNSGGTNYAQKFQGRVTMTRDTSISTAYMELSRLRSDDTAVYYCARDLSSGYSGYFDYWGQGTLVTVSS
VL: DVVMTQSPLSLPVTPGEPASISCRSSQSLLHSNGYNFLDWYLQKPGQSPQLLIYLGSNRASGVPDRFSGSGSGTDFTLKISRVEADDVGVYYCMQSLQTPWTFGHGTKVEIKR

B3: m906PBD (antibody, V domains shown)
VH: EVQLVQSGAEVKKPGSSVKVSCKASGGTFTGYYMHWVRQAPGQGLEWMGWINPNSGGTNYAQKFQGRVTMTRDTSISTAYMELSRLRSDDTAVYYCARDLSSGYSGYFDYWGQGTLVTVSS
VL: DVVMTQSPLSLPVTPGEPASISCRSSQSLLHSNGYNFLDWYLQKPGQSPQLLIYLGSNRASGVPDRFSGSGSGTDFTLKISRVEADDVGVYYCMQSLQTPWTFGHGTKVEIKR
modifications: PBD-MC conjugated to cysteine residues of the reduced IgG (sites not given); PBD-MC (pyrrolobenzodiazepine dimer with maleimide) conjugated to cysteine residues of the reduced IgG
killing of IMR5 cells (cell viability, 4 days) [1]: 5 pM
IC50 (read off the curve), % survival of CHP134 cells, ADC alone [4]: 0.01 nM

From US20180214568A1
